For orientation: EC50 means the concentration giving half of the maximal effect.

Results on four molecules are retold here after patent US20250382355A1 (Merck Sharp & Dohme, published 2025).

Test [1] deals with T1, OC43 spike protein (human coronavirus OC43, UniProt P36334 14-1278).
T1 sequence: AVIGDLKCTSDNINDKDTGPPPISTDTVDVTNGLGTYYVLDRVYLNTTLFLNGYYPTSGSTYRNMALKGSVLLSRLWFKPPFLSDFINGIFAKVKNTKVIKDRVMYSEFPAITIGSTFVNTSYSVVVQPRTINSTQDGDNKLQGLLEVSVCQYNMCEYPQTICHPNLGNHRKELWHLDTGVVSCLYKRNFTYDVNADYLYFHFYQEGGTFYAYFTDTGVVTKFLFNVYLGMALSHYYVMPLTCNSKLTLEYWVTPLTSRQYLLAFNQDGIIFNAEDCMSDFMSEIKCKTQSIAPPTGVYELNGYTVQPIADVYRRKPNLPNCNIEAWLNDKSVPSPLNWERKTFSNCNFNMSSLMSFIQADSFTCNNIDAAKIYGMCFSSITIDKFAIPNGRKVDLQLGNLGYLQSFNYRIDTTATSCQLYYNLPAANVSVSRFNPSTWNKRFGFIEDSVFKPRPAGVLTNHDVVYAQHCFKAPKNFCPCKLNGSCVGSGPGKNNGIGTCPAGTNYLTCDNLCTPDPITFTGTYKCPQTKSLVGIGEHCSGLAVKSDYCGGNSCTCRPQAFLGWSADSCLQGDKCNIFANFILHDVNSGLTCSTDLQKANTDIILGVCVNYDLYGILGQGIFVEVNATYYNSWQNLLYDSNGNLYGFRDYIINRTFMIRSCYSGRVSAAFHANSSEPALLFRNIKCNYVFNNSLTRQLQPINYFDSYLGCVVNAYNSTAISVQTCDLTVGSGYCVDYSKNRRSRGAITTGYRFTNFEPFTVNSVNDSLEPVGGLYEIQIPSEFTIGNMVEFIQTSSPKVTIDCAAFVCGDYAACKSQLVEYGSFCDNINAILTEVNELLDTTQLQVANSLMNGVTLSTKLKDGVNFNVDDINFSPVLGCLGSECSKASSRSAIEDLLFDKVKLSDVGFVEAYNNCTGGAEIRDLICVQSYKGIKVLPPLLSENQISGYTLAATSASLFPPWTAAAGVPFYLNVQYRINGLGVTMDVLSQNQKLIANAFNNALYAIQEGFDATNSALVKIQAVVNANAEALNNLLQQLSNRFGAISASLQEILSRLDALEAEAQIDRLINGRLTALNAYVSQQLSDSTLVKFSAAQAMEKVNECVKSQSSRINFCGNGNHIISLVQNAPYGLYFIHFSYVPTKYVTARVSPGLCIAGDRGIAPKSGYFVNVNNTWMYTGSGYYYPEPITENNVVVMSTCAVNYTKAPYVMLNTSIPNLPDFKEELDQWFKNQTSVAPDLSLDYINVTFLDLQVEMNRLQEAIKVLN
Nature of the test: ELISA. (An ELISA detects its analyte on a solid surface through an enzyme-linked reagent.)

Test [2] has as its target T2, SARS-CoV-2 spike protein on recombinant CHO K1 cells (SARS-CoV-2, UniProt P0DTC2 14-1273).
T2 construct: whole, on cells
Description: FACS on CHO K1 cells.

Test [3] concerns the target T3, MERS spike protein on recombinant CHO K1 cells (MERS-CoV, UniProt K9N5Q8 18-1353).
T3 sequence: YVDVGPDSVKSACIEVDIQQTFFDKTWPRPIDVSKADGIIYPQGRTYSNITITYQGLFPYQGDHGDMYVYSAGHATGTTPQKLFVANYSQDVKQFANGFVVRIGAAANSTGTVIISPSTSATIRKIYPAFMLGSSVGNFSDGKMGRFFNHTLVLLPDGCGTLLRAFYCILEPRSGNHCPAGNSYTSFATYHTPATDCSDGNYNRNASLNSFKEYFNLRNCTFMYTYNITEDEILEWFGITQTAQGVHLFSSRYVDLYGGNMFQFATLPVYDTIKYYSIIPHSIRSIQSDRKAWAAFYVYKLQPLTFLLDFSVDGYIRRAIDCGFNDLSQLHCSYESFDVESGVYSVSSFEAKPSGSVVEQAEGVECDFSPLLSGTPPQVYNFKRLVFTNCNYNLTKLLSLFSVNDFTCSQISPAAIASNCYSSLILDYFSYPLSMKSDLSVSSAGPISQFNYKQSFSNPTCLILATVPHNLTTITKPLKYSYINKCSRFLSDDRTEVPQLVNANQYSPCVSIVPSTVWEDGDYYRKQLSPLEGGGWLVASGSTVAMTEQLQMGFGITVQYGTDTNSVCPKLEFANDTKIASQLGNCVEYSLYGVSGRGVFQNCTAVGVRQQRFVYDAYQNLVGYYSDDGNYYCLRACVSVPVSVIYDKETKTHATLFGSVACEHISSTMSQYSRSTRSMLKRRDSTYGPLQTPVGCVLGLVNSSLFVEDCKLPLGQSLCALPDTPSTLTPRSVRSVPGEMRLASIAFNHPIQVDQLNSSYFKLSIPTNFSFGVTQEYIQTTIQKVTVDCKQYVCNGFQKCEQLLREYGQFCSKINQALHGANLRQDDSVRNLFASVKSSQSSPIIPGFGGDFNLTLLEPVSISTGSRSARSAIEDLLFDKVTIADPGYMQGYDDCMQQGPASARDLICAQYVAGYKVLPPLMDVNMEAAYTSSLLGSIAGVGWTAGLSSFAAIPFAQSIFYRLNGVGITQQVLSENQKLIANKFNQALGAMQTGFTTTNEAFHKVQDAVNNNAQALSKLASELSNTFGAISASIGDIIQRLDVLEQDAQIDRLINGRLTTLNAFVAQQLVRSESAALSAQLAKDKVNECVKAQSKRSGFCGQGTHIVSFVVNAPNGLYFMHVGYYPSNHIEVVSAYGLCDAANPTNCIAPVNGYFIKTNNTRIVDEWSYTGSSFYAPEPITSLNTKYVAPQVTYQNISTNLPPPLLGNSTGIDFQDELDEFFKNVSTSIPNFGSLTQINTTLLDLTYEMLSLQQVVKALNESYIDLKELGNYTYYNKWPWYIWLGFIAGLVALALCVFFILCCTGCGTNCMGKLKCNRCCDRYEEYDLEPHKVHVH
Description: FACS on CHO K1 cells.

Test [4] concerns the target spike protein of authentic SARS-CoV-2 virus (SARS-CoV-2, UniProt P0DTC2 14-1273). Description: cell-based or functional assay.
The target of test [5] is spike protein of authentic SARS-CoV/Urbani virus (SARS-CoV, UniProt P59594 14-1255). Nature of the test: cell-based or functional assay.
Test [6] concerns the target SARS-CoV spike protein on recombinant CHO K1 cells (SARS-CoV, UniProt P59594 14-1255). Nature of the test: FACS on CHO K1 cells.
For test [7], the target named is SARS-CoV spike on rVSV-deltaG-Luc pseudovirus (SARS-CoV, UniProt P59594 14-1236). Description: cell-based or functional assay.

B1: 6A1 VHH-Fc (Fc fusion)
chain: QVQLVESGGGLVQAGGSLRLSCTASGNIFSVNVMGWHRQAPGKRRELVAALTNDGRRNYADSVKGRFTISRDNAKNTIYLEMNSLKPEDTAVYYCGTGTLESGFNSWGQGLQVTVSS
Turning to B1, the EC50 in test [1] came out at 0.08 nM; in test [2], 0.14 nM; in test [3] it was 0.13 nM.

B2: 10B8 VHH-Fc (Fc fusion)
chain: QVQLVESGGGLVQPGGSLRLSCAASGITLDYYAIAWFRQAPGKEREGVSCFCSSDGDIRYADSVKGRFTISRDNAKNTVYLQMNSLKPEDTAVYYCATERVYSSTWFFHRYSELDFGSWGRGTQVTVSS
Consider B2, for which the “authentic virus neutralization IC50” value in test [4] was found to be 0.3 nM; in test [5], 0.04 nM. The figures for the EC50 in test [2] and in test [6] were 0.19 nM and 0.14 nM, respectively. In addition, the binding result in test [3] is given as “no binding”. In test [7], the “pseudovirus neutralization IC50” value was 0.09 nM.

B3: 10B8 VHH (VHH)
VHH: B2 chain
On to B3, for which the results for the “authentic virus neutralization IC50” value in test [4] and in test [5] were 2.9 nM and 0.15 nM, respectively.

B4: 1E4 VHH-Fc (Fc fusion)
chain: QVLLVESGGGLVQAGGLLRLACSASGRTFTENVMGWFRQAPGKEREFVAAINWNTGSTYYSDSRKGRFTISKDNAKNTMFLQINNLKPEDTAVYYCGGTSSSYYYIGEFIPDYWGQGTQVTVSS
In the case of B4, the “authentic virus neutralization IC50” value came out at 0.2 nM in test [4] and 0.05 nM in test [5]. Besides, the EC50 in test [2] is 0.06 nM. Further, the binding result in test [3] is “no binding”. Further, the “pseudovirus neutralization IC50” value in test [7] was found to be 0.06 nM.
